The source of these data is patent publication US20200181262A1 (published 2020).

Where a chain is given by its changes, count along the chain named. Several values for one entry are separate records, joined by “and”; a condition that tells them apart may be missing. Identical values can stand only once.

Assay [1] addresses T1, monomeric His-tagged human FcRn (hFcRn) (JTA) (human, UniProt P55899 24-290; P61769 21-119, limits assumed).
T1 construct: In-house soluble His-tagged FcRn; also called monomeric human FcRn produced in-house; not shown: His tag
Put plainly: SPR (Biacore 3000), mAb amine-coupled, His-tagged hFcRn injected, 1:1 Langmuir, pH 6.0. For orientation: SPR reads the build-up and loss of mass on a sensor chip optically.

Assay [2] addresses T2, FcRn (analyte of the BIACORE studies of Tables 9-11, tables titled anti-human FcRn mAbs) (human, UniProt P55899 24-290; P61769 21-119).
T2 construct: also called analyte (FcRn)
Put plainly: SPR, antibody captured on protein A, FcRn 50-0.02 nM, 1:1 model.
Experimental: For kinetic analysis, a 2-fold dilution range was selected from 50-0.02 nM FcRn. The association phase of FcRn analyte was monitored for 450 seconds, and dissociation was measured for 1500 seconds, at 40 μl/min. Fc1 was a reference channel and was subtracted from other flow cells to correct for non-specific binding. Kinetic values are based on a 1:1 binding model (Table 11).

Assay [3] deals with T1, monomeric His-tagged human FcRn (hFcRn) …. In words: SPR (Biacore 3000), mAb amine-coupled, His-tagged hFcRn injected, 1:1 Langmuir, pH 7.4.
Experimental: The coupling was performed by injecting 3 μg/ml of each protein into 10 mM sodium acetate, pH 4.5 (GE Healthcare), using the amine coupling kit (GE Healthcare). […] All SPR experiments were conducted at 25° C. with a flow rate of 40 μl/min. Binding data were zero-adjusted, and the reference cell value subtracted. The Langmuir 1:1 ligand binding model provided by the BIAevaluation software (version 4.1) was used to determine the binding kinetics. The closeness of the fit is described by the statistical value χ².
Assay [4] addresses T2, FcRn (analyte of the BIACORE studies of …). Put plainly: SPR (BIACORE), antibody immobilized on CM5, FcRn injected, 1:1 Langmuir, pH 6.0.
Experimental: Antibodies were diluted into 10 mM NaAc, pH 4.5, and immobilized onto BIACORE® CM5 chips to RU levels of approximately 500-1000. Analysis was performed by injection of FcRn at concentrations of 12-800 nM in 1×PBS-P at pH 7.4 or pH 6.0.
Assay [5] shares this target. In words: SPR (BIACORE), antibody captured on protein A CM5 chip, FcRn analyte.
Text: Antibodies were captured on a CM5 chip coated with protein A and analyte (FcRn) flowed over the surface.
The target in assay [6] is T1, monomeric His-tagged human FcRn (hFcRn) …. Put plainly: SPR (Biacore 3000), H3Vk2 amine-coupled, hFcRn (JTA) injected, 1:1 Langmuir, pH 7.4.
Experimental: (§1) All SPR experiments were conducted at 25° C. with a flow rate of 40 μl/min. Binding data were zero-adjusted, and the reference cell value subtracted. The Langmuir 1:1 ligand binding model provided by the BIAevaluation software (version 4.1) was used to determine the binding kinetics. The closeness of the fit is described by the statistical value χ2.
The target in assay [7] is human FcRn as expressed in cells (human whole blood; hFcRn transgenic mice) (human, UniProt P55899 24-365; P61769 21-119). In words: cell-based or functional assay.
human FcRn as expressed in cells (human whole blood; hFcRn transgenic mice), sequence (P55899 24-365, chain 1 of 2): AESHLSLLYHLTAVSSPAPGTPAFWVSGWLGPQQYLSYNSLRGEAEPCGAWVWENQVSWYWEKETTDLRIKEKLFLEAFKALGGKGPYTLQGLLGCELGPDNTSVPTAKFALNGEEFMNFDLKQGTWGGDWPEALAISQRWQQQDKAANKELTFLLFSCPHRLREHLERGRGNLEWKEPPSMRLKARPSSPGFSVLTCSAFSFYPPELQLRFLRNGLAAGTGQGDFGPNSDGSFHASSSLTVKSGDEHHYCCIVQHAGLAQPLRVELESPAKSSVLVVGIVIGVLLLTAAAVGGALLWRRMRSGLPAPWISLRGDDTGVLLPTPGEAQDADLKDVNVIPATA
human FcRn as expressed in cells (human whole blood; hFcRn transgenic mice), sequence (P61769 21-119, chain 2 of 2): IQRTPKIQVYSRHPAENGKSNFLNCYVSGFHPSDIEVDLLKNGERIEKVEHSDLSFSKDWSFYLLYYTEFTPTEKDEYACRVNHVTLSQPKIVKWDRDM
Assay [8] deals with T3, cynomolgus FcRn (cFcRn) obtained from SINO Biological Inc (cynomolgus monkey, UniProt Q8SPV9 24-297; Q8SPW0 21-119).
T3 construct: also called pFcRn (SINO); pFeltn (SINO)
T3 sequence (Q8SPV9 24-297 limits assumed, chain 1 of 2): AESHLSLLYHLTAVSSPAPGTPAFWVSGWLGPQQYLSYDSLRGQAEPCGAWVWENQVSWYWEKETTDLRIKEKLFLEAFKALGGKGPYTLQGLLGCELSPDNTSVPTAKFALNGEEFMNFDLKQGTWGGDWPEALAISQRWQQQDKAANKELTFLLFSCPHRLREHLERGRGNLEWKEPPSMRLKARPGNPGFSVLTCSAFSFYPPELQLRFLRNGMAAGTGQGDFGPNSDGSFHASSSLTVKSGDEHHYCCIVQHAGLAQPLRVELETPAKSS
T3 sequence (Q8SPW0 21-119 limits assumed, chain 2 of 2): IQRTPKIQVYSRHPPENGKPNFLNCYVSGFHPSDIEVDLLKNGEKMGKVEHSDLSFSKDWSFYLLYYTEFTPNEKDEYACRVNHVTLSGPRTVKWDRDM
Put plainly: SPR (Biacore 3000), H3Vk2 amine-coupled, cynomolgus FcRn (SINO) injected, 1:1 Langmuir, pH 7.4.
Experimental: as §1

The target in assay [9] is T1, monomeric His-tagged human FcRn (hFcRn) …. In words: SPR (Biacore 3000), mAb amine-coupled, His-tagged hFcRn (JTA) injected, 1:1 Langmuir, pH 6.0.
Experimental: In a further study, surface plasmon resonance (SPR) was conducted using a Biacore 3000 instrument (GE Healthcare) with CM5 sensor chips coupled with antibodies (˜550 resonance units (RU)) using amine-coupling chemistry as described by the manufacturer. […] All SPR experiments were conducted at 25° C. with a flow rate of 40 μl/min. Binding data were zero-adjusted, and the reference cell value subtracted. The Langmuir 1:1 ligand binding model provided by the BIAevaluation software (version 4.1) was used to determine the binding kinetics. The closeness of the fit is described by the statistical value χ2.

T1 sequence (P55899 24-290 limits assumed, chain 1 of 2): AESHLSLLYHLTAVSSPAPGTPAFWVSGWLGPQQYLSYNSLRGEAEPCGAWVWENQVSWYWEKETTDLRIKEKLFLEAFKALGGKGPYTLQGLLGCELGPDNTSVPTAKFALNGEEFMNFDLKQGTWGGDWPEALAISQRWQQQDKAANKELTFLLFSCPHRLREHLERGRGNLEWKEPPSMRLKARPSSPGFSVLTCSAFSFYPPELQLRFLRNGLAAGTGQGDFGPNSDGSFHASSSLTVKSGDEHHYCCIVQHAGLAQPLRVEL
T1 sequence (P61769 21-119 limits assumed, chain 2 of 2): as the sequence (P61769 21-119, chain 2 of 2) above
T2 sequence (P55899 24-290 limits assumed, chain 1 of 2): as the sequence (P55899 24-290 limits assumed, chain 1 of 2) above
T2 sequence (P61769 21-119 limits assumed, chain 2 of 2): as the sequence (P61769 21-119, chain 2 of 2) above

B1: G9VH1_Vκ2 antibody (antibody, V domains shown)
VH: QVQLVQSGAELKKPGASVKLSCKASGYTFTSYGISWVKQATGQGLEWIGEIYPRSGNTYYNEKFKGRATLTADKSTSTAYMELRSLRSEDSAVYFCARSTTVSPPRVWGTGTTVTVSS
VL: DIQMTQSPSSLSASVGDRVTITCKASDHINNWLAWYQQKPGQAPRLLISGATSLETGVPSRFSGSGTGKDYTLTISSLQPEDFATYYCQQYWSTPYTFGGGTKVEIK
notes: also called G9Vκ2
Broadly, the Kd is the concentration at which binding is half-saturated. For orientation: kon means the rate constant with which the complex forms. Low readings indicate slow association, high ones fast association. As for B1, the Kd in assay [1] was 7.4 nM; in [2], 0.39 nM and 0.4 nM; in assay [3], 4.9 nM. Besides, the values for the kon in assay [1], in [2] and in [3] were 85000 M⁻¹ s⁻¹, 318000 M⁻¹ s⁻¹ and 61000 M⁻¹ s⁻¹, respectively.

B2: VH1_G9/Vκ2_E8 IgG4 (antibody, V domains shown)
VH: B1 VH
VL: B1 VL with P80T, Q89H, W92Y
notes: bivalent IgG4, kappa; also called G9VH1_E8Vκ2; G9VH1E8Vκ2
As for B2, the results for the dissociation constant (Kd) in assay [4] and in assay [5] were 0.6 nM and 0.84 nM, respectively.

B3: H3VH1_Vκ2 antibody (anti-FcRn mAb H3Vκ2) (antibody, V domains shown)
VH: B1 VH with S103R, R106G, V107I
VL: B1 VL
notes: also called H3Vk2; H3VK2
As for B3, the Kd in assay [6] came to 4.6 nM; in assay [1], 3.8 nM; in assay [8] it was 11.9 nM; in assay [3], 5.1 nM; in [9], 3.8 nM. In [7], the “plasma concentration of HuLys11 (human IgG1) in hFcRn transgenic mice after 20 mg/kg” value came to 3 fold.
